# “Also recorded” adds a separate entry of the source.
# Key:
# Murine ATDC5 cell line = assay: Proteoglycan biosynthesis (35S-GAG) in pellet cultures; type: cell-based; conditions: pellet cultures, FIG. 22
# From the text: FIG. 12. A bar graph of the concentration dependent effects of Pentosan Polysulfate (PPS), on the biosynthesis of Proteoglycans (PGs) as determined by the incorporation of radioactively labelled sulfate into the sulfated glycosaminoglycans (^35S-GAG) of PGs in 6 day pellet cultures of murine progenitor cells (ADTC-5). *=p<0.05 relative to control.
# FIG. 22. A bar graph of the concentration dependent effects of rhNC4 (batch PBA-1202P) expressed by K. lactis, in the absence (maintenance media, MM) and presence of insulin (10 micrograms/mL) (differentiation media, DM), on the biosynthesis of Proteoglycans PGs) in pellet cultures of ATDC5 cells. Data is shown as the % change relative to controls taken to be 100%.
# Murine Progenitor cells (cell lines C3H10T1/2 or ATDC5) purchased from RIKEN Cell Bank (Tsukuba, Japan) or human immunoselected Stro-1+ Progenitor cells (Mesoblast Ltd, Melbourne, Australia) were seeded in 2 ml screw-capped sterile centrifuge tubes and the total volume made-up to 1 ml with DMEM-High glucose medium containing 10% FBS. Progenitor cells were then centrifuged at 500 g for 10 min in a swing-out rotor at room temperature. The screw caps were loosened and the tubes placed in an incubator at 37° C., in a 5% CO2/95% air moist atmosphere. The pellets generally formed within 24 hours. Medium was changed daily in the first two days, then once every 2-3 days thereafter. On day 5 the medium was removed and to each tube was added 1 ml with DMEM-High glucose medium containing 10% FBS, 5.0 μCi/ml ^35S-H2SO4 and various concentrations of PPS (0, 0.1, 0.5, 1.0, 2.5, 5.0, 10.0, 20.0, μg/ml) (FIG. 12-15) or rhNC4 (0, 0.1, 0.5, 1.0, 2.0 μg/ml) (FIG. 22). Triplicate cultures were used for all concentration of drugs. The screw caps were loosened and the tubes placed in an incubator at 37° C., in a 5% CO2/95% moist air atmosphere […]. On day 6, 200 μl of stock papain solution [2.5 mg/ml papain, 7.9 mg/ml L-Cystein in papain buffer (0.1 M NaAC, 5 mM EDTA, pH6.0)] was added to each tube. The tubes were tightly capped and incubated at 65° C. for 2 hours. After papain digestion, 4 replicates of 200 μl of papain digested solution were separately transferred to a 96-well micro-titre plate (200 μl/well). The remaining solution was used for the DNA fluorometric assays which were undertaken in triplicate as described above. Biosynthesis of ^35S-GAGs was determined as described for the monolayer cultures and the results expressed as ^35-S-GAGs/μg DNA.
# Data is shown as the % of controls taken to be 100%.
# ATDC5 cell = assay: Kinetics of ATDC5 cell growth over 13 days; type: cell-based, murine; conditions: rhNC4 (batch PBA-1200P) 5 ug/ml or Insulin 10 ug/ml; 20,000 cells per well at Day 0; FIG. 30
# Experimental: FIG. 30. A bar graph of the kinetics of ATDC5 cell growth induced by rhNC4 (batch PBA-1200P) (5 ug/ml) or Insulin (10 ug/ml) relative to control over 13 days. 20,000 cells per well were seeded at Day 0 (Start) with medium changes every 48 hrs. Insulin treated cultures reached confluence on day 6 and PBA-1200P on day 9. Control cultures also reached confluence on day 9 but in contrast to cultures containing insulin or PBA-1200P ceased to undergo replication.
# [1] = system: murine ATDC5 progenitor cells; assay: Proteoglycan biosynthesis (35S-GAG) in monolayer cultures, maintenance or differentiation media; type: cell-based
# From the text: (§1) FIG. 21. A bar graph of the concentration dependent effects of rhNC4 (batch PBA-1202P) expressed by K. lactis, in the absence (maintenance media, MM) and presence of insulin (10 micrograms/mL) (differentiation media, DM), on the biosynthesis of Proteoglycans (PGs) as determined by the incorporation of radioactively labelled sulfate into the sulfated glycosaminoglycans (^35S-GAG) of PGs after 3 day culture with Murine ATDC5 progenitor cells. The data was expressed as % change relative to control cultures that contained no rhNC4. P<0.05 was statistically significant relative to control cultures.
# FIG. 24. A bar graph of the concentration dependent effects of combinations of rhNC4 (batch PBA-1202P) and Pentosan Polysulfate (PPS) on the biosynthesis of 35S-PGs by monolayer cultures of Murine ATDC5 progenitor cells. Data is expressed relative to control (maintenance media, MM) which was taken as 100%.
# as §1, with “31.” for “21.”
# FIG. 32. A bar graph of the concentration dependent effects of Pentosan Polysulfate (PPS), in the presence of insulin (10 micrograms/mL), on the biosynthesis of Proteoglycans PGs) as determined by the incorporation of radioactively labelled sulfate into the sulfated glycosaminoglycans (^35S-GAG) of PGs after 3 day culture with Murine ATDC5 progenitor cells. The data was expressed as ^35S-GAG radioactivity as counts per minute (CPM) and decays per minute (DPM) relative to control cultures that contained no PPS. P<0.05 was statistically significant relative to control cultures.
# Murine Progenitor cells (cell lines C3H10T1/2 or ATDC5) purchased from RIKEN Cell Bank (Tsukuba, Japan) or human immunoselected Stro-1+ Progenitor cells (Mesoblast Ltd, Melbourne, Australia) were seeded into 50 mL plastic culture flasks containing 1:1 high glucose DMEM/Ham's F-12 medium (Invitrogen) supplemented with 10% FBS (Sigma) and incubated at 37° C., in 5% CO2. […] The experiments were generally terminated after 48 hours incubation when proteoglycan biosynthesis was determined by measuring the incorporation of ^35SO4 into the glycosaminoglycans (^35S-GAGs) as described below.
# The data was expressed as % change relative to control cultures that contained no rhNC4. […]
molecule,measurement,setting,value
"rhNC4: recombinant human non collagenous NC4 domain of the alpha-1 chain of type IX collagen, expressed by K. lactis (protein, listed as Homo sapiens) AVKRRPRFPVNSNSNGGNELCPKIRIGQDDLPGFDLISQFQVDKAASRRAIQRVVGSATLQVAYKLGNNVDFRIPTRNLYPSGLPEEYSFLTTFRMTGSTLKKNWNIWQIQDSSGKEQVGIKINGQTQSVVFSYKGLDGSLQTAAFSNLSSLFDSQWHKIMIGVERSSATLFVDCNRIESLPIKPRGPIDIDGFAVLGKLADNPQVSVPFELQWMLIHCDPLRPRRETCHELPARITPSQTTDER",rhNC4 concentration producing the optimum effect on PG synthesis,Murine ATDC5 cell line; maintenance media,0.5 micrograms/mL
same,PG synthesis,Murine ATDC5 cell line; rhNC4,stimulatory effect
same,day on which cultures reached confluence,ATDC5 cell,9 days
same,rhNC4 concentration of maximum effects on PG synthesis,"[1]; maintenance and differentiation media, FIG. 21",1 microgram/mL
same,PG synthesis,"[1]; rhNC4, absence (maintenance media) and presence of insulin (differentiation media), 3 day culture, FIG. 21/31",stimulated PG synthesis; also recorded: concentration dependent stimulation of PG synthesis

# From US9888679B2, “Protection of progenitor cells and regulation of their differentiation” (Proteobioactives Pty Ltd, priority 2007, dated 2018)
